Test results published in US20220332791A1 (ALIVEGEN, published 2022).

T1: myostatin (UniProt O14793 267-375)
T1 sequence (looked up): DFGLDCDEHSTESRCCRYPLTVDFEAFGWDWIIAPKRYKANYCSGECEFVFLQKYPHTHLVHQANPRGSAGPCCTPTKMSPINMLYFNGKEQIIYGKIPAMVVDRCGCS

T2: activin A (UniProt P08476 311-426)
T2 sequence (looked up): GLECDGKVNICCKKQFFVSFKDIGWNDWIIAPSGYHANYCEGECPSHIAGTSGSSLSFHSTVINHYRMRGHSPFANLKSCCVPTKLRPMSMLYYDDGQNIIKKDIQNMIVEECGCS

T3: activin B (UniProt P09529 293-407)
T3 sequence (looked up): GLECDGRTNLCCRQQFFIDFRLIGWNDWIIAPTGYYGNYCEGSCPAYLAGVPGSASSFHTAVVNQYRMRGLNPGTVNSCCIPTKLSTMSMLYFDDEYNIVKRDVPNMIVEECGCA

T4: BMP9 (UniProt Q9UK05 320-429)
T4 sequence (looked up): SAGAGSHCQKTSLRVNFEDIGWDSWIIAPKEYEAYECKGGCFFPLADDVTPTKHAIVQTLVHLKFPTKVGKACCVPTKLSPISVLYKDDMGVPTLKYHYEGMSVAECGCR


Experiments:
myostatin [1] = molecular target: T1, myostatin; assay: cell-based or functional assay
activin A [2] = molecular target: T2, activin A; assay: cell-based or functional assay
activin B = molecular target: T3, activin B; assay: cell-based or functional assay
BMP9 [3] = molecular target: T4, BMP9; assay: cell-based or functional assay
activin A [4] = molecular target: T2, activin A; assay: cell-based or functional assay; remark: listed apart in the source
BMP9 [5] = molecular target: T4, BMP9; assay: cell-based or functional assay; remark: listed apart in the source
BMP9 [6] = molecular target: T4, BMP9; assay: Octet Red BLI, trap on AHC biosensors, 10 nM BMP9; legend: +++ KD < 10^-8M
Method: (§1) Myostatin and BMP9 binding activities of various hybrid ActRIIB ligand trap proteins were initially analyzed using Octect Red (ForteBio). Purified proteins or conditioned media were individually loaded to AHC biosensors with maximum loading. Following a baseline washing phase, the sensors were exposed to 10 nM myostatin or BMP9, respectively, for an association step followed by a dissociation step. All experiments were performed with shaking at 1,000 rpm. Binding activity was analyzed using ForteBio's software with KD being calculated using the ratio Kd/Ka.

BMP9 [7] = molecular target: T4, BMP9; assay: KinExA, BMP-9-coupled Sepharose beads, trap held constant and ligand titrated
Method: (§2) AG-0014 and AG-0027 were analyzed by kinetic exclusion assay (KinExA) (Sapidyne Instruments, Inc.). 20-30 μg/ml of myostatin, activin A or BMP-9 was separately coupled to NHS-Activated Sepharose 4 Fast Flow beads (GE Healthcare) using experimental procedures recommended by Sapidyne Instruments. The concentration for each hybrid ActRIIB ligand trap protein was held constant as the ligand was titrated in a 2.5-fold serial dilution. Solutions were allowed to reach equilibrium by incubation at room temperature up to 24 hours and subsequently passed through a flow cell pre-packed with ligand-coated Sepharose beads on a KinExA 3000 machine (Sapidyne Instruments). The free hybrid ActRIIB ligand trap proteins captured on the beads was detected by Alexa Fluor 647-labeled goat anti-human-Fc antibody (Jackson ImmunoResearch Laboratories, Inc.). The ligand binding affinity values (KD) were calculated using the KinExA Pro software (Sapidyne Instruments).

myostatin [8] = molecular target: T1, myostatin; assay: Octet Red BLI, trap on AHC biosensors, 10 nM myostatin; legend: +++ KD < 10^-8M
Method: as §1

activin A [9] = molecular target: T2, activin A; assay: KinExA, activin A-coupled Sepharose beads, trap held constant and ligand titrated
Method: as §2

myostatin [10] = molecular target: T1, myostatin; assay: KinExA, myostatin-coupled Sepharose beads, trap held constant and ligand titrated
Method: as §2

myostatin [11] = molecular target: T1, myostatin; assay: cell-based or functional assay; remark: listed apart in the source
BMP9 [12] = molecular target: T4, BMP9; assay: Octet Red BLI, trap on AHC biosensors, 10 nM BMP9; legend: + KD 10^-4 - 10^-6M
Method: as §1

BMP9 [13] = molecular target: T4, BMP9; assay: Octet Red BLI, trap on AHC biosensors, 10 nM BMP9; legend: ++ KD: 10^-6 - 10^-7M
Method: as §1

Cell-Based IC50 (nM) Against Myostatin, C2C12-CAGA-luc reporter (myostatin [1]) | Cell-Based IC50 (nM) Against Activin A, C2C12-CAGA-luc reporter (activin A [2]) | Cell-Based IC50 (nM) Against Activin B, C2C12-CAGA-luc reporter (activin B) | IC50 (read off the curve) (activin A-induced luciferase, C2C12-CAGA-luc reporter cells) (activin A [4]) | KD (myostatin [8]) | Kd (activin A [9]) | Kd (myostatin [10]) | KD (BMP9 [12]) | Binder | other results
1.24 nM | 1.27 nM | 1.04 nM | ~4 nM | < 10 nM | 1.38 pM | 5.06 pM |  | wild-type ActRIIB-ECD-Fc fusion protein (Fc fusion, also called WT ActRIIB-Fc; WT; not shown: human Fc domain) ETRECIYYNANWELERTNQSGLERCEGEQDKRLHCYASWRNSSGTIELVKKGCWLDDFNCYDRQECVATEENPQVYFCCCEGNFCNERFTHLPEAGGPEVTYEPPPTAPTGGGGSESKYGPPCPPCP | Cell-Based IC50 (nM) Against BMP9, C2C12-BRE-luc reporter (BMP9 [3]): 3.4 nM; IC50 (read off the curve) (BMP9-induced luciferase, C2C12-BRE-luc reporter cells) (BMP9 [5]): ~10 nM; KD (BMP9 [6]): < 10 nM; Kd (BMP9 [7]): 4.25 pM
1.14 nM | 1.62 nM | 1.3 nM |  | < 10 nM | 1.09 pM | 7.87 pM |  | hybrid ActRIIB ligand trap protein AG-0027 (SEQ ID NO: 29) (Fc fusion, also called Hybrid Trap A; Hybrid Trap; not shown: human Fc domain) ETRECIYYNANWELERTNQSGLERCEGDQDKRLHCYASWRNSSGTIELVKKGCWLDDINCYDRQECVATKENPQVYFCCCEGNFCNERFTHLPEAGGPEVTYEPPPTAPTGGGGSESKYGPPCPPCP | 
 |  |  | ~10 nM | < 10 nM |  |  | 1 to 100 µM | hybrid ActRIIB ligand trap protein AG-0005 (SEQ ID NO: 7) (Fc fusion, not shown: a dimerising Fc or GST) ETRECIYYNANWELERTNQSGLERCEGEQDKRLHCYASWRNSSGTIELVKKGCWLDDFNCYDRTDCVEKKDSPQVYFCCCEGNFCNERFTHLPEAGGPEVTYEPPPTAPTGGGGSESKYGPPCPPCP | IC50 (read off the curve) (myostatin-induced luciferase, C2C12-CAGA-luc reporter cells) (myostatin [11]): ~1 nM
 |  |  |  | < 10 nM |  |  |  | hybrid ActRIIB ligand trap protein AG-0008 (SEQ ID NO: 10) (Fc fusion, not shown: human Fc domain) ETRECIYYNANWELERTNQSGLERCEGEQDKRLHCYASWRNSSGTIELVKKGCWLDDFNCYDRQECVEKKDSPQVYFCCCEGNFCNERFTHLPEAGGPEVTYEPPPTAPTGGGGSESKYGPPCPPCP | KD (BMP9 [13]): 100 to 1000 nM
 |  |  |  | < 10 nM |  |  | 1 to 100 µM | hybrid ActRIIB ligand trap protein AG-0007 (SEQ ID NO: 9) (Fc fusion, not shown: human Fc domain) ETRECIYYNANWELERTNQSGLERCEGEQDKRLHCYASWRNSSGTIELVKKGCWLDDFNCYDRQECVEKKDSPEVYFCCCEGNFCNERFTHLPEAGGPEVTYEPPPTAPTGGGGSESKYGPPCPPCP | 
0.95 nM | 1.15 nM | 2.1 nM |  | < 10 nM | 0.357 pM | 8.75 pM |  | hybrid ActRIIB ligand trap protein AG-0014 (SEQ ID NO: 16) (Fc fusion, also called Hybrid Trap B; not shown: human Fc domain) ETRECIYYNANWELERTNQSGLERCYGDKDKRRHCYASWRNSSGTIELVKKGCWLDDFNCYDRQECVATEENPQVYFCCCEGNFCNERFTHLPEAGGPEVTYEPPPTAPTGGGGSESKYGPPCPPCP | 
 |  |  | ~10 nM | < 10 nM |  |  |  | hybrid ActRIIB ligand trap protein AG-0003 (SEQ ID NO: 5) (Fc fusion, not shown: a dimerising Fc or GST) ETRECIYYNANWELERTNQSGLERCEGEQDKRLHCYASWRNSSGTIELVKKGCWLDDINCYDRTDCVEKKDSPEVYFCCCEGNFCNERFTHLPEAGGPEVTYEPPPTAPTGGGGSESKYGPPCPPCP | IC50 (read off the curve) (myostatin-induced luciferase, C2C12-CAGA-luc reporter cells) (myostatin [11]): ~0.4 nM; KD (BMP9 [13]): 100 to 1000 nM
 |  |  |  | < 10 nM |  |  | 1 to 100 µM | hybrid ActRIIB ligand trap protein AG-0006 (SEQ ID NO: 8) (Fc fusion, not shown: human Fc domain) ETRECIYYNANWELERTNQSGLERCEGEQDKRLHCYASWRNSSGTIELVKKGCWLDDFNCYDRTDCVEKKDSPEVYFCCCEGNFCNERFTHLPEAGGPEVTYEPPPTAPTGGGGSESKYGPPCPPCP | 
